We go through one substance from patent US20230212320A1.

Experiment [1] has as its target Fc2 of PTC039 (IgG1 Fc chain with L351G, T366S, L368A, Y407V) (Homo sapiens (Human)) [IgG part: P0DOX5]. Nature of the experiment: SE-HPLC, PTC074 co-expression.
Experiment [2] shares this target. The experiment in a line: SE-HPLC, PTC040 co-expression.

As for “Fc2 of PTC039 (IgG1 Fc chain with L351G, T366S, L368A, Y407V) (from UniProt P0DOX5 218-449)”, the Fc-2-2 homo-dimer (%) is 0.96% in experiment [1] and 1.5% in experiment [2].
